Test results as given in the DeepSol protein solubility set.

Test: soluble on expression in E. coli; label from the status in PepcDB or PDB records

Sequence | soluble on expression in E. coli
MAVAYEGQLTGHRGWVTSLACPQTPETATKVVSTSRDKTLLSWGPNPDRHSSECSYGLPDRRLEGHSAFVSDVALSNNGNFAVSASWDHSLRLWNLQNGQCQYKFLGHTKDVLSVAFSPDNRQIVSGGRDNALRVWNVKGECMHTLSRGAHTDWVSCVRFSPSLDAPVIVSGGWDNLVKVWDLATGRLVTDLKGHTNYVTSVTVSPDGSLCASSDKDGVARLWDLTKGEALSEMAAGAPINQICFSPNRYWMCAATEKGIRIFDLENKDIIVELAPEHQGSKKIVPECVSIAWSADGSTLYSGYTDNVIRVWGVSENA | not soluble
MPSAHSVKLRPLEREDLRYVHQLDNNASVMRYWFEEPYEAFVELSDLYDKHIHDQSERRFVVECDGEKAGLVELVEINHVHRRAEFQIIISPEYQGKGLATRAAKLAMDYGFTVLNLYKLYLIVDKENEKAIHIYRKLGFSVEGELMHEFFINGQYRNAIRMCIFQHQYLAEHKTPGQTLLKPTAQLEHHHHHH | not soluble
MPSLLLLGAGHAHMTVMEAIPRLIERGHSVTVVGPGERHYYSGMGPGMLGGHYSPEDISFPVRQMVTQRGGTFITARATRIDPQRKHVVLDSGQELAYDVCSCNTGSHVPSSIVDGDATDVFPVKPIENLLAGRESIRRRASRGPVRIAVVGGGPAALEVAGNAAAALTQTGAQGNVAMYAGSSFLRRFPARVRELARKELQKARVKLHEGAYASAVHTGEVVLDNGERYEADIIFTALGVVPSPLFAASGLPVGKDGGLAVDAHLRCTEYDDIFGGGDCIWFTPQPLAKVGVYAVRQNPVLLHNLAARLEGGPLLTFSPGGEYLLIFNTGSGRGILHKAGFTFAGRLAFMVKDWIDRRFIRRFQPHLEHHHHHH | not soluble
MDFVTGAVAHRRKFGGGRGQSIAKAVGLKQGVTPKVVDGTAGLGRDAFVLASLGCTVTMVERHPVVAALLEDGLRRAYQDAEIGDWMRERMQLFHGSSLEALAKLEQGVDVVYLDPMYPHRDKSALVKKEMRVFQTLVGADLDADGLLAPAMALASKRVVVKRPDYAEDLAGVKPSMVIETKKNRFDVYVKSAMKLEHHHHHH | not soluble
MHDHMITFQLATHFLSRIALRLEYLFKTINEACNESHEVIHRFALKNIIEIVEIVEKPELKSRFIKELIRIEHVLKKANLLNHSELFDDLETQIHVLNHVPGRFSNKIHDDEFLKTLRQIHHPNTKECEFNSPHLVLWFDSDPLMRQKTISQWVSCLKDLEDTVKIYLSLLRGVTQYTPIRANNGFYQHSLSPKSLNHLILLRIDKKLKMIPKIQLGHHSLTIRLYELVTGQEIRDKTIEMEIAFCQI | not soluble
MGSDKIHHHHHHMRYNRTETLLQLALELSASHSGLSLTDIEQMFGVGRRTAQRMRDAIERVFPQLEEVPQPDRTKRWRLPNRVLGRVSDLNIDDIMAMETAAEILERDNRPDAAASVRRAGAKVRASLRPDDARRIEPDLEALMQAEGIAMRPGPRPKVRPELVETLRHAIMGCREIRVQYRRRYSTNEHSRVVQPYGLLYGQRHYLLAFVPEENEVRSYSFPNIIGVEETGNSFVRDPAFSLTEYAARSFGLYQEEPYEVMWRFSPDAATDAKEFLFHPSQTHESQPDGSLIVRFKAGGLLEMAWHLYQWGDAVEVLEPEKLRAIHERSKVSWVARP | not soluble
MGSDKIHHHHHHMKEKERLIIEMAMKLFATKGVNATSVQEIVTACGISKGAFYLYFKSKEELLLATLRYYYDKIQNKMMDIEKESLLPREKFAKQLHCQFNDIQKHKEFIIMHARENAIPFNKEVEEFMMRMKLESHAFYRNSLLSIYGDKVMPYLLDLVIMVEGICRGYLELIILQAPEIDLSYVSAFILKRVDHLVDGLVKSSEEPVLHEERLGEFLCKSELIKEQVKEHFLKEIIVFKRTLADQLEDEELLVTLDVLEAEMRMQNPRIPVIQGMLFNLEAYPTLKEFRLRLMGYYNIKR | not soluble
MAHHHHHHMRSFMYMCRQVQGARFIQITRSRCGRTIPYKLADIGEGIKEVEVVTLYVKPGDRIGEFEKICEVQSDKATVEITSRYAGVITTVHIEAGEKAHVGEPIVDIEVNDTDETQKPSCGTVDCNVSDQFNNGGVPVAEEGDSCAADCTTEISKDFTKVLATPAVREFARSRGVNITDVKGTGKDGRVLREDVLSYAGKSCYNDDVVVRLDTGLRKAMVSSMTKAGSVPSFTACDEVEVSQLLNFQHILRDALNSSSEGVRDGSKVSLMPLFIKAASQSLLQYPELNAHVSSECDKLFVKKAHHIGFAMDTPKGLVVPVVRDVQQKSVAELVHEVNELVTLGRKSQIPPDRMKDGTFTLSNIGPIGAIYATPMLNPPQVAIGAIGRIQQLPRFDASGNVVRANILAMSWTADHRVIDGATLVRFSNAFKRCLESPGLLIAGEVA | not soluble
MGNIVKPFKQQPSSFAYQPLTVPLIPEVEAQSENLRVFSFKEWMKATKKSRQDRVVIRDDHYIRSFYKGYIDNTTFAPSRTKTGTPVSVVEYLHGSSQALQEWVDIFGVILLELLVGSQDRSTALKNQSSDWTGSFLPDNYKIGEIIDPRIGSDYPVDAATKIGLGPNVRCPYIGHRDMDKC | soluble
MHITLRQLEVFAEVLKSGSTTQASVMLALSQSAVSAALTDLEGQLGVQLFDRVGKRLVVNEHGRLLYPRALALLEQAVEIEQLFREDNGAIRIYASSTIGNYILPAVIARYRHDYPQLPIELSVGNSQDVMQAVLDFRVDIGFIEGPCHSTEIISEPWLEDELVVFAAPTSPLARGPVTLEQLAAAPWILRERGSGTRDIVDYLLLSHLPKFEMAMELGNSEAIKHAVRHGLGISCLSRRVIEDQLQAGTLSEVAVPLPRLMRTLWRIHHRQKHLSNALRRFLDYCDPANVPR | not soluble
MIQPRIRQNPFETYEEVAEGFEDLLAPLELFFDREYQGHLDLGTHGTVYSKGTRDAEAFLRPLWGLGPYVTQNESEYLNDFLTGIIEGTDPESSSYWGKTKDYDQLIVEMAALSTFLLLNKEKTWDQLTKEQQNNLHSWLIQANENIIPPNNWHFFRVLLNLAMKHCEMPYSKEQIAVDLAVIDRFYVGNGWYYDGVETQVDYYVSFAIHYYSLLYCRFAPEDTARVAIMKERATLFAQEFKYWFTQPGEAIPFGRSLTYRFAQVSFFSALVFADVEALPWGEIKGLISRHLHQWMNKDIFTTDGLLSVGYDYQNMVFAEGYNGPGSPYWAFKTFILLAVPKDHPYWQAETQPISFPEKHLPSPESRNYYQVNDAGTHGLMFPAGQFINYQAHAHDKYSKFVYSSHFGFSTIKSDYWYYEGAYDNCLALAEDDHYFRTKGLDDQYEILDDRIIHQWHPWSDVAIKTTIVPLEGQHLRIHEIETQRALVAYEGGFSIPLFDEKVTCVSDQMAEVKNAKGVSKVENINGFSEAAIIRTEPNTNLLYPLTELPYLKANLSKGKHLLISLVTGVLPNEQIEPVKVRLKENQLLVEEKVVILGN | soluble
MCLARSISRRENYKPLKSKVMTKRNVGRPPKNERADHCCMVRFTDTEFARFLTLFEQSGLQNRAAFIKARVFNETFRVIKVDRSLLDYYQKLTTLYGQFRSVGVNYNQTVVALKSNFTEKKAFAMLTKLEKLTLELAIIGGEIVQLTRKFQEKWQHRQ | not soluble
MSLKMTFCRAVCLAAAFLLMGCDEAPETTTASPAAQVLEGKTMGTLWRVSVVGIDAKRAAELQTKIQTQLDADDWLLSTYKNDSALMRFNHSRSLAPWPVSEAMADIVTSALRIGAKTDGAMDITVGPLVNLWGFGPDRQPLHIPTPAQIDAAKAKTGLQHLQVIDRAGHQFLQKDLPDLYVDLSTVGEGYAADHLARLMEQEGIARYLVSVGGALSSRGMNAQGQPWRVAIQKPTDRENAVQAIVDINGHGISTSGSYRNYYELDGKRVSHVIDPQTGRPIEHNLVSVTVIAPTALEADGWDTGLMVLGTQKAQEVVRREGLAVFMIMKEGEGFKTWMSPQFKTFLVSDKNEGGSHHHHHH | soluble
MFIQTEPTPNPATLKFIPGRSVLDSGTLEFTDASQAARSPLAARLFDIDGVSGVFYGTDFVTVTKDKGEWQHLKPAILGAIMEHYMSGTPILADGKSDGEDGDDDEFYADADAETVEIIKDLIETRVRPAVANDGGDITFRGFKDGIVYLNMRGACAGCPSSTATLQHGIQNLLKHFVPEVVEVRPVT | not soluble
MQEIIFIDGGSLPTPEGFTREWVKAAAESRTEDQKLFSLVSDAFQRKIDAGVHVPTYPQFRDMIGQFLDIIRDEKNCYEPYVLKEENAKILELEIIDEVAKQYRERTGKTLEVRVCVAGPTDLYLQAFGATAFSDAYHIMALNIENFIKQAFKAAKNFKIKVIALDEPSLGMNDKIQFSDLDIVSALTLASTYARKQGADVEIHLHSPLKYKLICETPINVMGFEYAATPSYIDLMDKKILEDSNTYIRLGVSRTDISSLIGMVNETYGVNAWKEKEYMQKIVTELETPDIIQKRLEKACSILGDRIKYASPDCGLAFWPDQELAFRLLENTAKGINAFNAEMKDLLEHHHHHH | not soluble
MNSALDFAFPATFPVKSSSVGGHRIASPGFSSRLRLCSLPPSSSIKAESCLKRDVHRQRSSLESMFCYDKPIPEEIIEEPVGLSMSEREIGDNQRCTCCEAKGALLCSTCSGTGLYVDSIMESQGIIVKVRCLGCGGSGNIMCKLCGGRGHVGH | not soluble
ACTQPSDWVPPAKNDALVIALKKVIGGRLSDAFHIRDKLQRRDAIAAVKDDVIQQLAGRLEVEGWNLAELLKEFGELEYRTMRDALLDTKVRIDGRSLEAVRP | not soluble
MAHHHHHHMPSGDAMIPRVCRTFSDAFASDEATAKEQGKKYWISRVLGSGATGTVLCAKRRSDGQSFAVKVVEMEGMSEADKNRAQAEVQCLLNCDFFSILKCHEDFAKKDPADEENVLMVALVLDYANAGDLRQEIKNRAKAARAFREHEAGLLFIQVLLAIHHVHSRHMIHRDIKTANILLCSNGLVKLGDFGFSKMYSATVSGDVGKTFCGTPYYVAPEIWRRKPYSKKADIFSLGVLLYELLTLKRPFDGENMQEVMQKALAGRYDPLPPTISPEMTEVVTSLLCGDPHARPSSSKLLNMPICKLFVSGLLEIVQTQPSFAGPLRDTISTHIQSVKQSLKEERRVTVRQMEESQSAAAASTTILEGATPMGSVGDLTLYEGIVKKQSGDLAWKRRYLCIRGALEEGERLDVGRMPKFKSLDLVLAVSKETMRQQCITTPFSELEDVFPVASKYTGSNAQHVFAVAFKTGRRLLFQARGDPERDAWMQKIQQTLGIDEAD | soluble
GHHHHHHAIAENLYFQSQQVKQKHKKSDEYRVFVGNLPFSWLEDAVRSVFHSYGTVVDVEVPRKREQPERNRGFAFVYFSSREEALAATTLSGSRLDGRIIKVEWADDGSEHRKVGHEELTQRPTHPLASSQVYEWGGQQVQKQNDSVVSKETPNFMPSGALYKEQRMTRYGKELKFVEPLDARKPEQPWRMYVFKNGKLLEGEEGVFYIHQKSNYLFGRDRDVVDIPIDHPSASKQHAVLQFRQVMPKNGNKLVIKPYIMDLESTNGTFLNNERIESLRYYELLEKDLLRFGHSSREFILLTGHK | soluble
MTKITYKVASEHPFPADAAAAAASLAAYEALDDVTKARVDQMVDWIMKNCLWQFHSRAWDRKRQNEGILGIAAKLLAGEPFTPETPEDRCYWVDSVTLQRAYLATCPWLATMSKGDIRALMKELHARVDYLTVTGSLNEELTDLHYLEHHHHHH | not soluble
MDIILGIRVQDSVILASSKAVTRGISVLKDSDDKTRQLSPHTLMSFAGEAGDTVQFAEYIQANIQLYSIREDYELSPQAVSSFVRQELAKSIRSRRPYQVNVLIGGYDKKKNKPELYQIDYLGTKVELPYGAHGYSGFYTFSLLDHHYRPDMTTEEGLDLLKLCVQELEKRMPMDFKGVIVKIVDKDGIRQVDDFQAQ | soluble
